How the values were obtained:
human C3b [1] = target: T1, human C3b (human, UniProt P01024 749-1663; P01024 23-667); assay: ELISA
human C3b [2] = target: T1, human C3b; assay: ELISA; remark: listed apart in the source
human C3b [3] = target: T1, human C3b; assay: ELISA; culture supernatant

T1 sequence (P01024 749-1663, chain 1 of 2): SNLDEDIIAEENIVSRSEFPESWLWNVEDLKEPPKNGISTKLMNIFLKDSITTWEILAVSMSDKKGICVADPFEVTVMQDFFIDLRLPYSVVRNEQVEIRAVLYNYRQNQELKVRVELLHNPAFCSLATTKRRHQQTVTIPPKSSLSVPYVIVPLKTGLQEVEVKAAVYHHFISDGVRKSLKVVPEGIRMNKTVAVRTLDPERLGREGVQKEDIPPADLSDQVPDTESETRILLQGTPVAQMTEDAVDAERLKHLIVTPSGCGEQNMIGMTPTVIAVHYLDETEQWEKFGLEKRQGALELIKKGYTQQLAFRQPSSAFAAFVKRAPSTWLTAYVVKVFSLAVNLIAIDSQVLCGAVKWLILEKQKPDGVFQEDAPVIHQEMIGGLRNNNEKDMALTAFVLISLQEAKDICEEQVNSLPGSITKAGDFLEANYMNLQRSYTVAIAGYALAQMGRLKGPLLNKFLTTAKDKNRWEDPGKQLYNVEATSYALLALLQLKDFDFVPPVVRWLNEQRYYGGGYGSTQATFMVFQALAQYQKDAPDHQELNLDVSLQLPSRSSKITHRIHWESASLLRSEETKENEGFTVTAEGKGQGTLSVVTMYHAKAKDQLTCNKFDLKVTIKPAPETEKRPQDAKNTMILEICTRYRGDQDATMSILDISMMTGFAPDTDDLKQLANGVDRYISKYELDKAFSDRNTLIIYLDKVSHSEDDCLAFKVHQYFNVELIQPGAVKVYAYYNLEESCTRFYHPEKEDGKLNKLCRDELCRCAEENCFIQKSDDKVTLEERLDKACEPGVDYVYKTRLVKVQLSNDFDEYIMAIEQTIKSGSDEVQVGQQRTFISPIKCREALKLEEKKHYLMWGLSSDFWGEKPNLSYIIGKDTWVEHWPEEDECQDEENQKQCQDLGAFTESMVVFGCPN
T1 sequence (P01024 23-667, chain 2 of 2): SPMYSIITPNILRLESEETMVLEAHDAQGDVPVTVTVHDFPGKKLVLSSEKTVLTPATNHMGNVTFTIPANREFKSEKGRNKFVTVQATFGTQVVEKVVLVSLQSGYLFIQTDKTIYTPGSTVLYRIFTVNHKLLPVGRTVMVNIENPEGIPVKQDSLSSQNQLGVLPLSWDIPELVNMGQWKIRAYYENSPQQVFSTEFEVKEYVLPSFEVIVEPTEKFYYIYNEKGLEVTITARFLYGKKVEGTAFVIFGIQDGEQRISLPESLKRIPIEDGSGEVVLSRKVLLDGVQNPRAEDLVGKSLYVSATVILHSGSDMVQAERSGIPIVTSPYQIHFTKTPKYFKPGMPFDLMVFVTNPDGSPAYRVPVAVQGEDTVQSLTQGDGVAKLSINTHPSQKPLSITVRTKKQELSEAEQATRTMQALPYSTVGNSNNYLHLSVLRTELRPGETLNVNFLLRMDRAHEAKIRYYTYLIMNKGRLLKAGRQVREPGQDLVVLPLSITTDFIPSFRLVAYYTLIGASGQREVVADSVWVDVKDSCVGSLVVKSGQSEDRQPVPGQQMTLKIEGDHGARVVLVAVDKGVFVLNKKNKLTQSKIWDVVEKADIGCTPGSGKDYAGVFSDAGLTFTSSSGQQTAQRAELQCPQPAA

Binder | EC50 (human C3b [1]) [nM] | EC50 (human C3b [2]) [nM] | EC50 (human C3b [3]) [nM]
Factor H-like protein 1 (FHL-1) (other) EDCNELPPRRNTEILTGSWSDQTYPEGTQAIYKCRPGYRSLGNVIMVCRKGEWVALNPLRKCQKRPCGHPGDTPFGTFTLTGGNVFEYGVKAVYTCNEGYQLLGEINYRECDTDGWTNDIPICEVVKCLPVTAPENGKIVSSAMEPDREYHFGQAVRFVCNSGYKIEGDEEMHCSDDGFWSKEKPKCVEISCKSPDVINGSPISQKIIYKENERFQYKCNMGYEYSERGDAVCTESGWRPLPSCEEKSCDNPYIPNGDYSPLRIKHRTGDEITYQCRNGFYPATRGNTAKCTSTGWIPAPRCTLKPCDYPDIKHGGLYHENMRRPYFPVAVGKYYSYYCDEHFETPSGSYWDHIHCTQDGWSPAVPCLRKCYFPYLENGYNQNYGRKFVQGKSIDVACHPGYALPKAQTTVTCMENGWSPTPRCIRVSFTL | 7.4 |  | 
complement factor H (CFH) (other) EDCNELPPRRNTEILTGSWSDQTYPEGTQAIYKCRPGYRSLGNVIMVCRKGEWVALNPLRKCQKRPCGHPGDTPFGTFTLTGGNVFEYGVKAVYTCNEGYQLLGEINYRECDTDGWTNDIPICEVVKCLPVTAPENGKIVSSAMEPDREYHFGQAVRFVCNSGYKIEGDEEMHCSDDGFWSKEKPKCVEISCKSPDVINGSPISQKIIYKENERFQYKCNMGYEYSERGDAVCTESGWRPLPSCEEKSCDNPYIPNGDYSPLRIKHRTGDEITYQCRNGFYPATRGNTAKCTSTGWIPAPRCTLKPCDYPDIKHGGLYHENMRRPYFPVAVGKYYSYYCDEHFETPSGSYWDHIHCTQDGWSPAVPCLRKCYFPYLENGYNQNYGRKFVQGKSIDVACHPGYALPKAQTTVTCMENGWSPTPRCIRVKTCSKSSIDIENGFISESQYTYALKEKAKYQCKLGYVTADGETSGSITCGKDGWSAQPTCIKSCDIPVFMNARTKNDFTWFKLNDTLDYECHDGYESNTGSTTGSIVCGYNGWSDLPICYERECELPKIDVHLVPDRKKDQYKVGEVLKFSCKPGFTIVGPNSVQCYHFGLSPDLPICKEQVQSCGPPPELLNGNVKEKTKEEYGHSEVVEYYCNPRFLMKGPNKIQCVDGEWTTLPVCIVEESTCGDIPELEHGWAQLSSPPYYYGDSVEFNCSESFTMIGHRSITCIHGVWTQLPQCVAIDKLKKCKSSNLIILEEHLKNKKEFDHNSNIRYRCRGKEGWIHTVCINGRWDPEVNCSMAQIQLCPPPPQIPNSHNMTTTLNYRDGEKVSVLCQENYLIQEGEEITCKDGRWQSIPLCVEKIPCSQPPQIEHGTINSSRSSQESYAHGTKLSYTCEGGFRISEENETTCYMGKWSSPPQCEGLPCKSPPEISHGVVAHMSDSYQYGEEVTYKCFEGFGIDGPAIAKCLGEKWSHPPSCIKTDCLSLPSFENAIPMGEKKDVYKAGEQVTYTCATYYKMDGASNVTCINSRWTGRPTCRDTSCVNPPTVQNAYIVSRQMSKYPSGERVRYQCRSPYEMFGDEEVMCLNGNWTEPPQCKDSTGKCGPPPPIDNGDITSFPLSVYAPASSVEYQCQNLYQLEGNKRITCRNGQWSEPPKCLHPCVISREIMENYNIALRWTAKQKLYSRTGESVEFVCKRGYRLSSRSHTLRTTCWDGKLEYPTCAKR | 4.5 | 1.2 | 
Var108 (glycoengineered variant of FHL-1, G442N in the Var004 framework) (designed binder, N-linked glycosylation at the engineered NxS/T motif (G442N), >90% glycosylated monomer) EDCNELPPRRNTEILTGSWSDQTYPEGTQAIYKCRPGYRSLGNVIMVCRKGEWVALNPLRKCQKRPCGHPGDTPFGTFTLTGGNVFEYGVKAVYTCNEGYQLLGEINYRECDTDGWTNDIPICEVVKCLPVTAPENGKIVSSAMEPDREYHFGQAVRFVCNSGYKIEGDEEMHCSDDGFWSKEKPKCVEISCKSPDVINGSPISQKIIYKENERFQYKCNMGYEYSERGDAVCTESGWRPLPSCEEKSCDNPYIPNGDYSPLRIKHRTGDEITYQCRNGFYPATRGNTAKCTSTGWIPAPRCTLKPCDYPDIKHGGLYHENMRRPYFPVAVGKYYSYYCDEHFETPSGSYWDHIHCTQDGWSPAVPCLRKCYFPYLENGYNQNYGRKFVQGKSIDVACHPGYALPKAQTTVTCMENGWSPTPRCIRVSGGGGSGGGGSGGGNSTLKPCDYPDIKHGGLYHENMRRPYFPVAVGKYYSYYCDEHFETPSGSYWDHIHCTQDGWSPAVPCLRKCYFPYLENGYNQNYGRKFVQGKSIDVACHPGYALPKAQTTVTCMENGWSPTPRCIRVSFTL | 0.4 |  | 
Var004 (engineered variant of FHL-1) (designed binder) EDCNELPPRRNTEILTGSWSDQTYPEGTQAIYKCRPGYRSLGNVIMVCRKGEWVALNPLRKCQKRPCGHPGDTPFGTFTLTGGNVFEYGVKAVYTCNEGYQLLGEINYRECDTDGWTNDIPICEVVKCLPVTAPENGKIVSSAMEPDREYHFGQAVRFVCNSGYKIEGDEEMHCSDDGFWSKEKPKCVEISCKSPDVINGSPISQKIIYKENERFQYKCNMGYEYSERGDAVCTESGWRPLPSCEEKSCDNPYIPNGDYSPLRIKHRTGDEITYQCRNGFYPATRGNTAKCTSTGWIPAPRCTLKPCDYPDIKHGGLYHENMRRPYFPVAVGKYYSYYCDEHFETPSGSYWDHIHCTQDGWSPAVPCLRKCYFPYLENGYNQNYGRKFVQGKSIDVACHPGYALPKAQTTVTCMENGWSPTPRCIRVSGGGGSGGGGSGGGGSTLKPCDYPDIKHGGLYHENMRRPYFPVAVGKYYSYYCDEHFETPSGSYWDHIHCTQDGWSPAVPCLRKCYFPYLENGYNQNYGRKFVQGKSIDVACHPGYALPKAQTTVTCMENGWSPTPRCIRVSFTL |  |  | 2.5

Reference: patent US20260116937A1 (published 2026)
